Reference: publication doi:10.1101/2024.08.01.606155 (bioRxiv, 2024)

Molecular target: the molecule itself
Test: SEC

B1: PMK3 (p38 MAPK of C. elegans), full length (enzyme, UniProt O44514 1-474, looked up)
chain: MASVPSSSSLPVSHVRRHEDVSTPSAPPTKRSNNQSQPPESYEPNTWLQQQREQEQQKKLAAENIKKQSIEATGNNEMVGEEEEDILSKPCGPHKRRFQFVMIRNITFAIPEGYDVEPNSIEYLGGGSFGNVIKTSAVCRDGLRRYVAIKKMREPFFDPHHARRIFRETKLLQLMRHDNIICALDIYTPDEENDFRDVYVVTEFAGRSLYQILKQQRDYGRRVLTDEHIKFIIYQIIRALKYIHSANIIHRDLKPGNLALTDDSDLMILDFGLARSLEKKDTSLTQYVQTRWYRSPEVIYWKIDSYTNLADMWSLGCIAAELLTGEPLFPGDEPNAQYQRITQLCGSPDEELLTKIENDNSSAIKAVIQSYTTHKRRNFRDVFSAHNPSEDFIDLLEKLLVLDPEKRITVEEAIQHPYLAEFSLPEDEPRADHIFDLDDSQARTRFEWRDAVWKEIMNYKRLSSSPLIPGEADR
binding result: binds
